Self-cleavage data for 56 variants are collected here from the RNAGym collection of RNA variant scans (doi:10.7554/elife.90254).

B1: LINE1-mini (parent)
chain: GGCAGAGCUCAACACAGCGUGGCAAAGUGGCUGUGGCUAGACUGCC

In this series the parent is B1. The series is described as follows: self-cleavage, relative activity (ratio to wild type); higher = more cleavage; in vitro, sequencing; the parent is a self-cleaving ribozyme.
Consider GGCAGAGCUCAACACAACGUGGCAAAGAGGCUGUGGCUAGACUGCC [G17A U28A], for which the self-cleavage was determined as 0.26.
The value for GGCAGAGCUCAACACAACGUGGCAAAGUGGCUGUGGCUAGACUCCC [G17A G44C] was 0.05; that for GGCAGAGCUCAACACAACGUGGCAAAGUGGCUGUGGCUAGACUUCC [G17A G44U] was 0.03.
The result for GGCAGAGCUCAACACAACGUGGCAAAGUGGCUGUGGCUAGACUACC [G17A G44A] reads 0.04; that for GGCAGAGCUCAACACAACGUGGCAAAGUGGCUGUGGCUAGUCUGCC [G17A A41U], 0.12; that for GGCAGAGCUCAACACAACGUGGCAAAGUGGCUGUGGCUAGCCUGCC [G17A A41C], 0.04.
The result for GGCAGAGCUCAACACAACGUGGCAAAGUGGCUGUGGCUAGGCUGCC [G17A A41G] reads 0.07; that for GGCAGAGCUCAACACAACGUGGCAAAGUUGCUGUGGCUAGACUGCC [G17A G29U], 0.07; that for GGCAGAGCUCAACACAACGUGGCAAAGUAGCUGUGGCUAGACUGCC [G17A G29A], 0.37.
On to GGCAGAGCUCAACACAACGUGGCAAAGUCGCUGUGGCUAGACUGCC [G17A G29C], for which the self-cleavage is 0.68.
The result for GGCAGAGCUCAACACUGCGUGGCAAAGUGGCUGUGACUAGACUGCC [A16U G36A] reads 0.06.
For GGCAGAGCUCAACACUGCGUGGCAAAGUGGCUGUGUCUAGACUGCC [A16U G36U], the self-cleavage stood at 0.06.
Consider GGCAGAGCUCAACACUGCGUGGCAAAGUGGCUGUGCCUAGACUGCC [A16U G36C], for which the self-cleavage turned out to be 0.07.
The result for GGCAGAGCUCAACACUGCGUGGCAAAGUGGCUGAGGCUAGACUGCC [A16U U34A] reads 0.04; that for GGCAGAGCUCAACACUGCGUGGCAAAGUGGCUGCGGCUAGACUGCC [A16U U34C], 0.07.
On to GGCAGAGCUCAACACUGCGUGGCAAAGUGGCUGGGGCUAGACUGCC [A16U U34G], for which the self-cleavage is 0.02.
The result for GGCAGAGCUCAACACUGCGUGGCAAAGAGGCUGUGGCUAGACUGCC [A16U U28A] reads 0.26; that for GGCAGAGCUCAACACUGCGUGGCAAAGGGGCUGUGGCUAGACUGCC [A16U U28G], 0.22.
Turning to GGCAGAGCUCAACACUGCGUGGCAAAGCGGCUGUGGCUAGACUGCC [A16U U28C], the self-cleavage worked out at 0.55.
The result for GGCAGAGCUCAACACAACGGGGCAAAGUGGCUGUGGCUAGACUGCC [G17A U20G] reads 0.07.
The result for GGCAGAGCUCAACACAACGAGGCAAAGUGGCUGUGGCUAGACUGCC [G17A U20A] reads 0.1; that for GGCAGAGCUCAACACAACGCGGCAAAGUGGCUGUGGCUAGACUGCC [G17A U20C], 0.12.
The value for GGCAGAGCUCAACACUGCGUGGCAAAGUGGCUUUGGCUAGACUGCC [A16U G33U] was 0.14.
As for GGCAGAGCUCAACACUGCGUGGCAAAGUGGCUCUGGCUAGACUGCC [A16U G33C], the self-cleavage was found to be 0.07.
The value for GGCAGAGCUCAACACUGCGUGGCAAAGUGGCUGUGGCGAGACUGCC [A16U U38G] was 0.02; that for GGCAGAGCUCAACACUGCGUGGCAAAGUGGCUGUGGCAAGACUGCC [A16U U38A] was 0.1; that for GGCAGAGCUCAACACUGCGUGGCAAAGUGGCUGUGGCCAGACUGCC [A16U U38C] was 0.04.
Take GGCAGAGCUCAACACAACGUGGCAAAGUGGCUGUGUCUAGACUGCC [G17A G36U]: the self-cleavage was 0.05.
The value for GGCAGAGCUCAACACAACGUGGCAAAGUGGCUGUGACUAGACUGCC [G17A G36A] was 0.1; that for GGCAGAGCUCAACACAACGUGGCAAAGUGGCUGUGCCUAGACUGCC [G17A G36C] was 0.05; that for GGCAGAGCUCAACACAACGUGGCAAAGUGGCUGAGGCUAGACUGCC [G17A U34A] was 0.04.
With GGCAGAGCUCAACACAACGUGGCACAGUGGCUGUGGCUAGACUGCC [G17A A25C], the self-cleavage came out at 0.07.
The value for GGCAGAGCUCAACACAACGUGGCAGAGUGGCUGUGGCUAGACUGCC [G17A A25G] was 0.07; that for GGCAGAGCUCAACACAACGUGGCAUAGUGGCUGUGGCUAGACUGCC [G17A A25U] was 0.24; that for GGCAGAGCUCAACACAACGUGGCGAAGUGGCUGUGGCUAGACUGCC [G17A A24G] was 0.18.
The value for GGCAGAGCUCAACACAACGUGGCUAAGUGGCUGUGGCUAGACUGCC [G17A A24U] was 0.38.
The result for GGCAGAGCUCAACACAACGUGGCCAAGUGGCUGUGGCUAGACUGCC [G17A A24C] reads 0.06; that for GGCAGAGCUCAACACAACGUGCCAAAGUGGCUGUGGCUAGACUGCC [G17A G22C], 0.17.
Turning to GGCAGAGCUCAACACAACGUGUCAAAGUGGCUGUGGCUAGACUGCC [G17A G22U], the self-cleavage came out at 0.54.
For GGCAGAGCUCAACACAACGUGACAAAGUGGCUGUGGCUAGACUGCC [G17A G22A], the self-cleavage is 0.32.
The value for GGCAGAGCUCAACACAACGUGGCAAAGUGGCAGUGGCUAGACUGCC [G17A U32A] was 0.06; that for GGCAGAGCUCAACACAACGUGGCAAAGUGGCGGUGGCUAGACUGCC [G17A U32G] was 0.06; that for GGCAGAGCUCAACACAACGUGGCAAAGUGGCCGUGGCUAGACUGCC [G17A U32C] was 0.09.
The result for GGCAGAGCUCAACACUGCGUGGCAAAGUGGCUGUGGCUAAACUGCC [A16U G40A] reads 0.04; that for GGCAGAGCUCAACACUGCGUGGCAAAGUGGCUGUGGCUAUACUGCC [A16U G40U], 0.07; that for GGCAGAGCUCAACACUGCGUGGCAAAGUGGCUGUGGCUACACUGCC [A16U G40C], 0.05.
The result for GGCAGAGCUCAACACAACGUCGCAAAGUGGCUGUGGCUAGACUGCC [G17A G21C] reads 0.74; that for GGCAGAGCUCAACACAACGUUGCAAAGUGGCUGUGGCUAGACUGCC [G17A G21U], 0.83.
On to GGCAGAGCUCAACACAACGUAGCAAAGUGGCUGUGGCUAGACUGCC [G17A G21A], for which the self-cleavage was 0.22.
The value for GGCAGAGCUCAACACAACGUGGCAAAGUGGCUGUGGCUACACUGCC [G17A G40C] was 0.09; that for GGCAGAGCUCAACACAACGUGGCAAAGUGGCUGUGGCUAAACUGCC [G17A G40A] was 0.06.
As to GGCAGAGCUCAACACAACGUGGCAAAGUGGCUGUGGCUAUACUGCC [G17A G40U], the self-cleavage was 0.07.
The result for GGCAGAGCUCAACACAACGUGGCAAAGUGGCUGUGGCUAGACUGCC [G17A] reads 0.19.
The value for GGCAGAGCUCAACACUGCGAGGCAAAGUGGCUGUGGCUAGACUGCC [A16U U20A] was 0.06; that for GGCAGAGCUCAACACUGCGCGGCAAAGUGGCUGUGGCUAGACUGCC [A16U U20C] was 0.26.
In the case of GGCAGAGCUCAACACUGCGGGGCAAAGUGGCUGUGGCUAGACUGCC [A16U U20G], the self-cleavage was 0.03.
